# Assay results taken from patent US20050090648A1 (Eli Lilly, published 2005).
# T1: Mouse Aβ 1-40 (mouse, UniProt P12023 672-711)
# T1 construct: domain: Aβ 1-40; Numbers count on the Aβ peptide
# T1 peptide (looked up): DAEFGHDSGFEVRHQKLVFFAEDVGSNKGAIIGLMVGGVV
# T2: Human Aβ fragment 10-20 (human, UniProt P05067 681-691)
# T2 construct: domain: Aβ fragment 10-20; Numbers count on the Aβ peptide; also called human amyloid beta 10-20
# T2 peptide (looked up): YEVHHQKLVFF
# T3: Human Aβ fragment 16-25 (human, UniProt P05067 687-696)
# T3 construct: domain: Aβ fragment 16-25; Numbers count on the Aβ peptide; also called human amyloid beta 16-25
# T3 peptide (looked up): KLVFFAEDVG
# Columns and labels:
# β-amyloid peptide (1-42) [1] = target: T4, β-amyloid peptide (1-42) (UniProt P05067 672-713); assay: competitive ELISA on coated β-amyloid peptide (1-42); competitor against biotinylated Mu3D6 (0.2 µg/ml); first set of three experiments
# T4 construct: domain: β-amyloid peptide (1-42); Numbers 1-42 count on the Aβ peptide, not on the APP precursor entry; also called Aβ 1-42; Amyloid-beta 1-42
# Protocol: (§1) After washing the wells with phosphate buffered saline (PBS) containing 0.1% Tween 20 (Washing Buffer) using an ELISA plate washer, the wells were blocked by adding 300 μL of SuperBlock reagent (Pierce) per well. After 30 minutes of blocking, the wells were washed with Washing Buffer and excess liquid was removed.
# (§2) As a background control, 100 μl of ELISA Buffer was added. The ELISA plate was incubated at room temperature for 90 min. […] The plate was incubated at room temperature for 30 min and washed with Washing Buffer. For color development, 100 μl/well of ABTS Peroxidase Substrate (Kirkegaard & Perry Laboratories) was added. Color development was stopped by adding 100 μl/well of 2% oxalic acid. […] The absorbances were plotted against the log of the competitor concentration, curves were fit to the data points (using Prism) and the IC50 was determined for each antibody using methods well-known in the art.
# β-amyloid peptide (1-42) [2] = target: T4, β-amyloid peptide (1-42); assay: competitive ELISA on coated β-amyloid peptide (1-42); competitor against biotinylated Mu3D6; second set of three experiments
# Protocol: as §1, §2
# Mouse Aβ 1-40 = target: T1, Mouse Aβ 1-40; assay: BIAcore, single concentration of peptide
# Description: (§3) All dilutions were made with HEPES buffered saline containing Tween 20. A single concentration of a variety of fragments of human Aβ or mouse Aβ 1-40 (BioSource International) was used.
# β-amyloid peptide (1-42) [3] = target: T4, β-amyloid peptide (1-42); assay: BIAcore 2000, antibody captured by anti-IgG on CM5 chip, Aβ flowed over
# Protocol: Antibody affinity (KD=Kd/Ka) was determined using a BIAcore biosensor 2000 and data analyzed with BIAevaluation (v. 3.1) software. A capture antibody (rabbit anti-mouse or anti-human IgG) was coupled via free amine groups to carboxyl groups on flow cell 2 of a biosensor chip (CM5) using N-ethyl-N-dimethylaminopropyl carbodiimide and N-hydroxysuccinimide (EDC/NHS). A non-specific rabbit IgG was coupled to flow cell 1 as a background control. Monoclonal antibodies were captured to yield 300 resonance units (RU). […] To regenerate the chip, bound anti-Aβ antibody was eluted from the chip using a wash with glycine-HCl (pH 2). A control injection containing no amyloid-beta served as a control for baseline subtraction.
# Human Aβ fragment 10-20 = target: T2, Human Aβ fragment 10-20; assay: BIAcore, single concentration of fragment
# Description: as §3
# Human Aβ fragment 16-25 = target: T3, Human Aβ fragment 16-25; assay: BIAcore, single concentration of fragment
# Description: as §3
# T4 sequence (P05067 672-713 limits assumed): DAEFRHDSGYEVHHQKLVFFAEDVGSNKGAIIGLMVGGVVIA
binder,measurement,setting,value
"Humanized 3D6 antibody (antibody, human IgG1, kappa, V domains shown, Expressed from pVk-Hu3D6 and pVg1-Hu3D6 in Sp2/0 (human kappa, gamma 1); also called Hu3D6) VH: EVQLVESGGGLVQPGGSLRLSCAGSGFTFSNYGMSWVRQAPGKGLEWVASIRSGGGRTYYSDNVKGRFTISRENAKNSLYLQMNSLRAEDTAVYYCVRYDHYSGSSDYWGQGTLVTVSS VL: DVVMTQSPLSLPVTLGQPASISCKSSQSLLDSDGKTYLNWLQQRPGQSPRRLIYLVSKLDSGVPDRFSGSGSGTDFTLKISRVEAEDVGVYYCWQGTHFPRTFGGGTKVEIKR",IC50,β-amyloid peptide (1-42) [1],3.3 µg/mL
same,IC50,β-amyloid peptide (1-42) [2],3.97 µg/mL
same,binding result,Mouse Aβ 1-40,no binding
same,Kd,β-amyloid peptide (1-42) [3],2.3 nM
same,binding result,Human Aβ fragment 10-20,no binding
same,binding result,Human Aβ fragment 16-25,no binding
